The source of these data is the supplement of paper PMC10899765.

Details in all cases: 20 nM; 72 h
Series [1] has as its system MCF10A. As to the kind of experiment: one-nucleolus phenotype percent effect (relative to siNT 0% and siNOL11 100%); higher = more cells with one nucleolus (ribosome biogenesis inhibition). The protocol: (§1)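 After 72 h, cells were fixed and stained with Hoechst and anti-fibrillarin, and nucleoli per nucleus were counted with CellProfiler. Values are plate-adjusted percent effect for the one-nucleolus and 5+ nucleoli phenotypes, normalised to siNT (0%) and to the positive controls siNOL11 or siKIF11 (100%), as the mean of biological triplicates. Percent viability is the nuclei count relative to siNT.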

Series [2] deals with MCF10A. As to the kind of experiment: 5+ nucleoli phenotype percent effect (relative to siNT 0% and siKIF11 100%); higher = more cells with five or more nucleoli. The protocol:
as §1

Series [3] concerns MCF10A. Put plainly: percent viability (nuclei count relative to siNT); higher = more viable cells. The protocol:
as §1

In the case of “ACUGUCACUUCUCUGCCCAUAG [hsa-miR-6773-3p]”, the “one-nucleolus phenotype percent effect” value in series [1] is 13.5%. In addition, the “5+ nucleoli phenotype percent effect” value in series [2] is -17.8%. In series [3], the percent viability is 47.1%.
The corresponding values for “UUAAUGCUAAUCGUGAUAGGGGU [hsa-miR-155-5p]” are 8.74%, -38.5% and 38.2%.
“CAGUGCAAUGAUGAAAGGGCAU [hsa-miR-130b-3p]”: the “one-nucleolus phenotype percent effect” value in series [1] is -14.8%. The “5+ nucleoli phenotype percent effect” value in series [2] worked out at 59.9%. In series [3], the percent viability turned out to be 77%.
For “UGCUGGCUCAUUUCAUAUGUGU [hsa-miR-5580-5p]”, in that order: 22.1%, -18.4% and 29.6%.
GGCUACAACACAGGACCCGGGC [hsa-miR-187-5p]: in series [1], the “one-nucleolus phenotype percent effect” value is -18.2%. Also, in series [2], the “5+ nucleoli phenotype percent effect” value amounted to 15.6%. In series [3], the percent viability was 136%.
For the sequence GAGGCUGAGCUGAGGAG [hsa-miR-4478], the “one-nucleolus phenotype percent effect” value in series [1] turned out to be 35.1%. Moreover, the “5+ nucleoli phenotype percent effect” value in series [2] was -17.6%. Also, the percent viability in series [3] was determined as 22.9%.
As for AAGUGCUGUCAUAGCUGAGGUC [hsa-miR-512-3p], in series [1], the “one-nucleolus phenotype percent effect” value is -17.8%. For the same sequence, the “5+ nucleoli phenotype percent effect” value in series [2] turned out to be 45.1%. Also, the percent viability in series [3] was determined as 69.7%.
As to CGGGGUGGGUGAGGUCGGGC [hsa-miR-4651], the “one-nucleolus phenotype percent effect” value in series [1] came out at 2.27%. In series [2], the “5+ nucleoli phenotype percent effect” value was -1.6%. Moreover, the percent viability in series [3] came to 33.5%.
For “AGCUCUAGAAAGAUUGUUGACC [hsa-miR-6502-5p]”, in that order: -17.4%, 66.5% and 93.5%.
For “CAAAUGAGCUUAAUUUCCUUUU [hsa-miR-1252-3p]”, in that order: -15.1%, 37.8% and 160%.
ACUCAAAACCCUUCAGUGACUU [hsa-miR-616-5p]: the “one-nucleolus phenotype percent effect” value in series [1] is -11.3%. The “5+ nucleoli phenotype percent effect” value in series [2] worked out at 21.5%. In series [3], the percent viability came out at 93.6%.
On to CAUGGGGUAGGGCAGAGUAGG [hsa-miR-6890-5p], for which the “one-nucleolus phenotype percent effect” value in series [1] was determined as 21.6%. For the same sequence, in series [2], the “5+ nucleoli phenotype percent effect” value is -15.7%. For the same sequence, the percent viability in series [3] was 43.6%.
For UGCCUCCUUGGUCUCCGGCAG [hsa-miR-6791-3p], in that order: -3.74%, -9.62% and 22.2%.
For CGGGGCAGCUCAGUACAGGAU [hsa-miR-486-3p], in that order: 47.2%, -5.42% and 10.1%.
The corresponding values for “UCAGUGCAUCACAGAACUUUGU [hsa-miR-148b-3p]” are -21.1%, 68.9% and 126%.
Consider UCCGGUUCUCAGGGCUCCACC [hsa-miR-671-3p], for which, in series [1], the “one-nucleolus phenotype percent effect” value amounted to 54.3%. Moreover, the “5+ nucleoli phenotype percent effect” value in series [2] was -33.5%. The percent viability in series [3] was found to be 15.2%.
The corresponding values for UGACACGGAGGGUGGCUUGGGAA [hsa-miR-4462] are -18.7%, 14.9% and 82.7%.
The corresponding values for “AAUGUUGGAAUCCUCGCUAGAG [hsa-miR-4781-3p]” are -0.0524%, 12.4% and 34.3%.
The corresponding values for “UUUCCCUUCAGAGCCUGGCUUU [hsa-miR-4755-5p]” are 3.84%, 1.53% and 52.8%.
As to CAACUAGACUGUGAGCUUCUAG [hsa-miR-708-3p], in series [1], the “one-nucleolus phenotype percent effect” value was -31%. Moreover, in series [2], the “5+ nucleoli phenotype percent effect” value stood at 46.1%. For the same sequence, the percent viability in series [3] turned out to be 199%.
On to CAGGUCACGUCUCUGCAGUUAC [hsa-miR-370-5p], for which, in series [1], the “one-nucleolus phenotype percent effect” value is -14.6%. The “5+ nucleoli phenotype percent effect” value in series [2] is 5.92%. The percent viability in series [3] was 54.3%.
As to “CCCCUGGGGCUGGGCAGGCGGA [hsa-miR-6791-5p]”, in series [1], the “one-nucleolus phenotype percent effect” value is -13.7%. For the same sequence, the “5+ nucleoli phenotype percent effect” value in series [2] was 45.9%. The percent viability in series [3] was 107%.
CAAAAACUGCAUUACUUUUGC [hsa-miR-548j-3p]: in series [1], the “one-nucleolus phenotype percent effect” value is -29.2%. The “5+ nucleoli phenotype percent effect” value in series [2] was found to be 32.5%. Besides, the percent viability in series [3] amounted to 118%.
For the sequence GUGCUUCAUCGUAAUUAACCUUA [hsa-miR-3977], the “one-nucleolus phenotype percent effect” value in series [1] was 2.65%. The “5+ nucleoli phenotype percent effect” value in series [2] is -18.9%. Moreover, the percent viability in series [3] came out at 49%.
